The data set can be described thus: In vitro enzyme assay: formation of vanillin with isoeugenol as the substrate. It counts as biochemical. The note with it: purified recombinant protein; 10 mM isoeugenol, pH 7.0, 30° C., 10 min; negative control heat-denatured enzyme gave no vanillin. The procedure: The enzyme activity of the putative isoeugenol monooxygenase was assayed by measuring the formation of vanillin with isoeugenol as the substrate. The reaction mixture contained 10 mM isoeugenol, 100 mM potassium phosphate buffer (pH 7.0), 10% (v/v) ethanol and an appropriate amount of enzyme, in a total volume of 1 ml. The reaction was started, by adding isoeugenol as ethanol solution, carried out at 30° C. for 10 min with reciprocal shaking (160 strokes min^−1) and stopped with the addition of 1 ml of methanol. After centrifugation at […], the supernatant was analyzed by HPLC for the determination of isoeugenol and vanillin and vanillyl alcohol. VpIEM enzyme treated in boiling water for 5 minutes was used as the negative control.
HPLC analysis of isoeugenol and vanillin was carried out with a Vanquish Ultimate 3000 system. Intermediates were separated by reverse-phase chromatography on a Dionex Acclaim 120 C18 column (particle size 3 μm; 150 by 2.1 mm) with a gradient of 0.15% (volume/volume) acetic acid (eluant A) and methanol (eluant B) in a range of 60 to 100% (vol/vol) eluant B and at a flow rate of 0.4 ml/min. For quantification, all intermediates were calibrated with external standards. The compounds were identified by their retention times, as well as the corresponding spectra, which were identified with a diode array detector in the system.

B1: VpIEM: putative isoeugenol monooxygenase from Violaceomyces palustris, expressed in E. coli and purified (protein, listed as Violaceomyces paulstris)
chain: MAPAPTVQDAAPVAVAVPSKATNKGSFVHPTDILPSGWPTATDLSGGAQPRRFEGTIYDVMVRGTIPKELHGTFYRIMPDYAEAPTYYKGGELNAPIDGDGTVAAFRFKDGNVDYRQRFVETDRFKVERRARKSMYGLYRNPYTHHPCVRQTVDSTANTNVVMHAGRFLAMKENGNAYELDPHTLKTLGYNPFKLPSKTMTAHPKQDAVTGNLVGFGYEAKGLATKDVYYFEVDTQGNIVHDLWLEAPWCAFIHDCALTPNYLVLMLWPFEADIERMKAGGHHWAYDYDKPITWITIPRGAKSKDEVKYWYWKNGMPIHTAAGYEDEKGRIIIDSSLVHGNAFPFFPPDSEEQRKRQEADGTPIAQFVRWTIDPSKDPNERLPDPEVVLDTPSEFPQIDNRFMGKEYSSAFINVFMPDRSDTGKNVFQGLNGLCHYRRKEGTADFYYAGDNCLIQEPVFSPRSKDAPEGDGFVLAIVDRLDANRSEVVIIDTRDFTKAVAAVQLPFAIRSGIHGQWIQGNTIPDFDTRGLVDLPKEEHWAPPEASAYDPNM
modifications: (1)..(551) Amino Acid Sequence of VpIEM
As for B1, the “conversion of isoeugenol to vanillin (enzyme activity, HPLC)” value is given as “able to catalyze the conversion of isoeugenol to vanillin”.

The values above are taken from patent publication US20240052381A1, “BIOSYNTHESIS OF VANILLIN FROM ISOEUGENOL” (BASF SE, priority 2020, published 2024).
